Entries after “also recorded” stand apart in the source; their conditions may differ. Peptide text beside a SMILES is read from it.
Key:
[1] = Fibril stability by UPLC; format: physicochemical; details: 2 mg/ml; 10 min, 1 h, 24 h, 10 d at RT or 37° C.
Description: Fibrils were generated by dissolving lyophilized peptides in DMSO to 10 mg/ml followed by adding PBS to receive a final concentration of 2 mg/ml. Fibril stocks were incubated at room temperature (RT) and 37° C. and after 10 min, 1 h, 24 h and 10 days stability assays using ultra performance liquid chromatography (UPLC) with a reverse phase column was performed in collaboration with the Core Facility Functional Peptidomics (Ulm University). Shown is one individual experiment.
Since the stability of pharmaceutical products must be ensured during application (Grassi et al., 2019), we analyzed the stability of RM-8, which contains a C-terminal methionine, an amino acid sensitive to oxidation, by ultra performance liquid chromatography (UPLC). To that end, RM-8 nanofibrils were incubated for 10 min, 1 h, 24 h or 10 d at room temperature (RT) of 37° C. followed by UPLC analysis.

[2] = tested on: Human CD4+ and CD8+ T cells; experiment: Viability of transduced human T cells, trypan blue staining; format: cell-based; details: 7 days
Description: FIG. 10: RM-8 nanofibrils enhance GALV-γ-RV transduction of T cells. […] GFP expression of CD3+ cells was analyzed by flow cytometry. Viability was determined by trypan blue staining. Human CD4+ and CD8+ T cells were isolated from Buffy coats of two donors. Indicated transduction enhancers were incubated with GAL V-γ-RV and then the mix was used to transduce T cells. Shown are average values (±SD). SD, standard deviation.
For the CAR T cell like process human CD4+ and CD8+ T cells were isolated from Buffy coats of two donors using RosetteSep™ Human CD4+ and CD8+ T Cell Enrichment Cocktail (STEMCELL Technologies) according to manufacturer's protocol. Isolated T cells were activated using Dynabeads™ Human T-Activator CD3/CD28 (Gibco™) according to manufacturer's protocol for three days in presence of 10 ng/ml interleukin-2 (IL-2). After 3 days the magnetic Dynabeads were removed using a magnet and T cells were cultured in presence of 9 ng/ml interleukin-7 (IL-7) and 10 ng/ml interleukin-15 (IL-15). After 1 day T cells were transduced with GALV-γ-RV using the transduction enhancers RM-8 (50 μg/ml), Vectofusin®-1 (10 μg/ml), or RetroNectin (20 μg/ml). […] After 7 days the transduced T cells were analyzed by flow cytometry.

[3] = tested on: R5-tropic HIV-1; experiment: HIV-1 infection of TZM-bl cells, Tat-inducible β-galactosidase activity; details: 3 days; for n-fold enhancement of HIV-1 infection: virus treated with 150 μg/ml peptide
Description: HIV-1 was produced from pBRNL4.39-92TH14, a plasmid containing a CCR5 tropic molecular HIV-1 clone (Papkalla et al., 2002). Infectious HIV-1 stocks were prepared by transfection of 293T cells by calcium phosphate transfection and HIV-1 infection of TZM-bl cells was determined by detecting cellular β-galactosidase activity.
To determine the effect on HIV-1 infection, stocks of the CCR5 tropic HIV-1 were generated by transient transduction of 293T cells with proviral DNA and harvested 2 days later. The HIV-1 stock was titrated and a dilution factor of 125 was chosen for infection of TZM-bl cells to reach a maximal infection enhancement. HIV-1 virus was added to serially diluted IL-18 peptides and mixtures were used to infect TZM-bl cells which contain the reporter gene β-galacosidase under the control of the HIV-1-LTR promoter (Wei et al., 2002).

[4] = Thioflavin T (ThT) fluorescence, fibril formation; format: physicochemical; details: peptide 2 mg/ml in PBS, RT 10 min; 'except for' = no ThT signal detected
Excerpt: The fibril peptide has the activity of forming fibrils in an aqueous solution, the term “fibril” relating to any threadlike structure or filament comprising, preferably consisting of, a multitude of fibril peptides; preferably, the fibrils are nanofibrils, i.e. have a diameter of from 2 to 20 nm, and/or a length of from 100 nm to 10 μm, preferably of from 100 nm to 5 μm. Preferably, aggregation of fibril peptides occurs spontaneously in aqueous solution, wherein an aqueous solution is a solution comprising at most 28% (v/v), preferably at most 15% (v/v), more preferably at most 10% (v/v), still more preferably at most 5% (v/v), most preferably at most 2% (v/v), organic solvents. Methods for determining the activity of forming fibrils are known to the skilled person and are shown herein in the Examples. Preferably, the activity of forming fibrils is determined by a Thioflavin T binding assay as specified herein in the Examples. The activity of forming fibrils may, however, also be determined by Transmission electron microscopy (TEM), Congo Red staining, measurement of conversion rate, and/or Fourier transform infrared (FTIR) spectroscopy; the aforesaid methods are known in the art.
The peptides were solved in HFIP (1,1,1,3,3,3-Hexafluoro-2-propanol) and were sonicated using an Ultrasonic cleaner. The peptides were stored at −20° C. and for each experiment they were freshly dissolved in DMSO to 10 mg/ml; to generate fibrils, the peptides were diluted in PBS to get 2 mg/ml or 1 mg/ml and incubated for 10 min at room temperature (RT).
The lyophilized RM-8 and its derivatives (Peptides 1-42) were solved in DMSO to 10 mg/ml and stored at 4° C. For each experiment they were freshly solved in PBS to 2 mg/ml and incubated for 10 min at RT.
(§1) Peptides derived from human interleukin-18 were identified by an in silico-screening approach where the human protein interleukin-18 (Q14116) was analyzed by the amyloid prediction tools ZipperDB, TANGO 2.0 and PASTA (FIG. 1A). To examine if these endogenous peptides form nanofibrils, the freshly prepared peptides were incubated with the amyloid specific dye Thioflavin T (ThT), which fluorescence increases upon binding to amyloid fibrils. […] To determine if the IL-18 peptides have the ability to form positively charged fibrils the zeta potential was measured.

[5] = Zeta potential of peptide nanofibrils; format: physicochemical; details: peptides incubated at RT for 10 min
Description: FIG. 1: Human interleukin-18 (IL-18) derived peptides form nanofibrils. (A) Table displaying sequences, physical and chemical parameters of peptides derived from IL-18. The positively charged amino acids are written in italics. (B) ThT fluorescence of the tested peptides and EF-C (Protransduzin®-A) which were incubated at RT for 10 min. (C) Zeta potential of peptides which were incubated at RT for 10 min. Shown are average values (±SD) of duplicates from two independent experiments. (D-J) Transmission electron microscopy images of EF-C (D), RK-10 (E-F), RM-8 (G-H), RS-7 (I), and FK-7 (J). […]
FIG. 5: RM-8 analogs from alanine scanning form positively charged nanofibrils. […] (B) ThT fluorescence of alanine scanning derived peptides, RM-8, QH-9 and EF-C. […]
as §1

## CC[C@H](C)[C@H](NC(=O)[C@H](Cc1ccccc1)NC(=O)[C@@H](NC(=O)[C@@H](NC(=O)[C@@H](N)CCCNC(=N)N)[C@@H](C)O)[C@@H](C)CC)C(=O)N[C@H](C(=O)N[C@@H](CO)C(=O)N[C@@H](CCSC)C(=O)O)[C@@H](C)CC [RM-8, RTIFIISM] (H-RTIFIISM-OH)
[1]
  stability of nanofibrils (UPLC): stable for 10 days; also recorded: stable over time
[2]
  cytotoxicity on T cells: without showing cytotoxicity; also recorded: not showing cytotoxicity

## FK-7: peptide derived from human interleukin-18; sequence only in FIG. 1A (FIISMYK; Peptide FK-7)
[3]
  n-fold enhancement of HIV-1 infection: weak or no effects

## RS-7: peptide derived from human interleukin-18; sequence only in FIG. 1A (RTIFIIS; Peptide RS-7)
[3]
  n-fold enhancement of HIV-1 infection: weak or no effects

## RS-12: peptide derived from human interleukin-18; sequence only in FIG. 1A (RDNAPRTIFIIS; Peptide RS-12)
[3]
  n-fold enhancement of HIV-1 infection: weak or no effects

## RTIAIISM (fibril peptide 20) [Peptide A4, RM-8 analog from alanine scanning]
[4]
  ThT signal (fibril formation): except for

## RTIFGISM (Peptide 18)
[4]
  ThT signal (fibril formation): except for

## RTIFIISA (fibril peptide 24) [Peptide A8, RM-8 analog from alanine scanning]
[4]
  ThT signal (fibril formation): except for

## RTIFIISMYK (fibril peptide 34) [RK-10, peptide derived from human interleukin-18]
[3]; serially diluted peptides
  enhancement of HIV-1 infection (in words): dose-dependably enhancement
[5]
  zeta potential (sign): positive zeta potential

## RTIFIKSM (Peptide 26)
[4]
  ThT signal (fibril formation): except for

## RTIFIRSM (Peptide 25)
[4]
  ThT signal (fibril formation): except for

## RTIPIISM (Peptide 17)
[4]
  ThT signal (fibril formation): except for
